# Laboratory results reported in patent US20210386829A1, “COMPOSITIONS AND METHODS FOR MODULATING CGRP SIGNALING TO REGULATE INNATE LYMPHOID CELL INFLAMMATORY RESPONSES” (The Broad Institute, Inc., priority 2018, published 2021).
# B1: IL-33: alarmin cytokine which activates ILC2s and induces their proliferation; used as stimulus (protein, UniProt Q8BVZ5 1-266, looked up)
# Interleukin-33: MRPRMKYSNSKISPAKFSSTAGEALVPPCKIRRSQQKTKEFCHVYCMRLRSGLTIRKETSYFRKEPTKRYSLKSGTKHEENFSAYPRDSRKRSLLGSIQAFAASVDTLSIQGTSLLTQSPASLSTYNDQSVSFVLENGCYVINVDDSGKDQEQDQVLLRYYESPCPASQSGDGVDGKKLMVNMSPIKDTDIWLHANDKDYSVELQRGDVSPPEQAFFVLHKKSSDFVSFECKNLPGTYIGVKDNQLALVEEKDESCNNIMFKLSKI
# Tests used:
# [1] = tested on: lung ILCs; assay: culture of sort-purified lung ILCs with IL-7, IL-33 or IL-25+NMU with or without CGRP (qPCR, LegendPlex, intracellular cytokine staining); format: cell-based, mouse; conditions: short-term (8 hours) IL-33 alone, no CGRP
# Protocol: (§1) ILC in vitro culture. For in vitro experiments 5,000 ILCs/well were cultured in a 96 well round bottom plate with 20 ng/ml IL-7 (R&D Systems), 200 ng/ml IL-25 (R&D Systems) or 20 ng/ml, 2 ng/ml or 0.2 ng/ml IL-33 (BioLegend) with or without 1 μg/ml Neuromedin U (US Biological). In some cases purified CD90.2^+ lung cells were first labeled with CellTrace Violet (Thermo Fisher Scientific), then sorted as described above, and cultured for 3 days under the indicated conditions.
# Quantitative real-time PCR. RNA was isolated using RNeasy Plus Mini Kit (Qiagen) and reverse transcribed to cDNA with iScript cDNA Synthesis Kit (Bio-Rad). Gene expression was analyzed by quantitative real-time PCR on a ViiA7 System (Thermo Fisher Scientific) using TaqMan Fast Advanced Master Mix (Thermo Fisher Scientific) with the following primer/probe sets: Il5 (Mm00439646_m1), Il13 (Mm00434204_m1), Il17rb (Mm00444709_m1), Nmur1 (Mm04207994_m1), Nmur2 (Mm00600704_m1), Nmu (Mm00479868_m1) and Actb (Applied Biosystems). Expression values were calculated relative to Actb detected in the same sample by duplex qPCR.
# Cytokine quantification. Cytokine concentrations in BAL fluid, lung and supernatant of in vitro ILC cultures were analyzed by the LegendPlex Mouse Th Cytokine Panel (13-plex) (BioLegend) according to the manufacturer's instructions and analyzed on a FACS Calibur (BD Biosciences).
# Culture of innate lymphoid cells. Sort-purified innate lymphoid cells (ILCs) were cultured under sterile conditions in complete medium in a humidified incubator at 37° C. and 10% CO2. ILCs were plated at a density of 3,000-5,000 ILCs per well in a 96 well round-bottom plate in cell culture medium with 20 ng/ml IL-7. Depending on the experiment, different combinations of 200 ng/ml IL-25, 200 ng/ml IL-33, 1 ug/ml NMU and 100 nM CGRP were added either at start or after overnight culture with 20 ng/ml IL-7. […]
# For flow cytometric analysis, lung cells were transferred into a 96 well V-bottom plate and stained with surface antibodies for 20 min at 4° C. in the dark. Cells were washed twice with DPBS containing 2% fetal bovine serum and transferred into 1.2 ml tubes for analysis by flow cytometry. For intracellular cytokine staining, cells were incubated in complete cell culture medium with 50 ng/ml phorbol 12-myristate 13-acetate (Sigma-Aldrich), 1 uM ionomycin (Sigma-Aldrich) and GolgiStop (Cat #554724; BD Biosciences) in a humidified incubator at 37° C. and 10% CO2. After 5 hours, cells were transferred into 96 well V-bottom plate, stained with Fixable Viability Dye eFluor 506 (Cat #65-0866-14; Thermo Fisher) and surface antibodies for 20 min at 4° C. in the dark and washed twice with DPBS containing 2% fetal bovine serum. Then, cells were incubated with BD Cytofix/Cytoperm Buffer (Cat #51-2090KZ; BD Biosciences) for 20 min, followed by a wash with BD Perm/Wash Buffer (Cat #51-2091KZ; BD Biosciences). Subsequently, cells were incubated with antibodies targeting intracellular proteins diluted in BD Perm/Wash Buffer for 20 min and after two wash steps, transferred into 1.2 ml tubes for analysis by flow cytometry. For ki67 staining, cells were stained for surface antibodies as described above, fixed with a solution of Fixation/Permeabilization Concentrate (Cat #00-5123-43; Invitrogen) and Fixation/Perm Diluent (Cat #00-5223-56; Invitrogen) for 20 min, washed with Permeabilization Buffer (Cat #00-8333-56; Invitrogen). Then, cells were incubated with ki67 antibody diluted in Permeabilization Buffer for 20 min, washed and transferred into FACS tubes. Cells were analyzed on a BD LSRFortessa (BD Biosciences) flow cytometer with 5 lasers (355 nm, 405 nm, 488 nm, 561 nm and 640 nm). Data was analyzed using FlowJo v10.5.0 software and cell populations were gated as described previously (Wallrapp 2017).
# RNA isolation and cDNA synthesis. […]
# [2] = tested on: lung ILCs; assay: CellTrace Violet proliferation assay of sort-purified lung ILCs; format: cell-based, mouse; conditions: 3 days
# Protocol: as §1
# Proliferation assay. Lung cells were isolated and enriched for CD90.2 cells as described above, followed by labeling with CellTrace Violet (Cat #C34557; Thermo Fisher Scientific) according to manufacturer's instructions and subsequently stained with antibodies. After 3-day culture of sort-purified ILCs with 20 ng/ml IL-7 either alone or in combination with 200 ng/ml IL-33, 100 pM CGRP or 100 nM CGRP followed by staining, expression of CellTrace Violet in live (7AAD−) ILCs was analyzed on a BD LSRFortessa (BD Biosciences).
molecule,measurement,setting,value
B1,frequency of IL-13-positive ILC2s (intracellular cytokine staining),[1],~13%
same,ILC2 proliferation,"[2]; IL-7+IL-33 vs IL-7 alone, absent CGRP",induced significant ILC2 proliferation
same,IL-33-activated ILCs that divided at least once,[2]; IL-7+IL-33 without CGRP,approximately 55%
